Experimental data published in publication PMC4180030.

Molecular target: dimeric oxygen-evolving photosystem II complex isolated from WT T. elongatus (Thermosynechococcus elongatus (endogenous in T. elongatus BP1)) (UniProt P0A444)
Assay: co-purification by two-step anion-exchange chromatography, immunoblotting; PSII complexes isolated from WT T. elongatus membranes (Kern et al. 2005); semi-quantitative immunoblotting of thylakoids and PSII against recombinant protein standards

- stoichiometry N (CyanoQ per PSII monomer): 0.4
B1: CyanoQ (Tll2057) from Thermosynechococcus elongatus (natural protein)
chain: CGGPSATTPPPPTYSELQITRIQDYLRDIEKNAERFADLEVSVAKGDWQEARNIMRGPLGEMLMDMRALNRNLLAKDQPTPTALTRALTDDFLKIDQGADLDSVTVAQEGFREAEADFKAYLNSLPELS
